# From US9586995B2, “Compositions and methods of use for (pro)renin receptor” (University of Utah, priority 2012, dated 2017)
# B1: mouse renin: mouse renin, infused ICV (protein, UniProt P06281 72-402, looked up)
# Renin-1: SPVVLTNYLNTQYYGEIGIGTPPQTFKVIFDTGSANLWVPSTKCSRLYLACGIHSLYESSDSSSYMENGSDFTIHYGSGRVKGFLSQDSVTVGGITVTQTFGEVTELPLIPFMLAKFDGVLGMGFPAQAVGGVTPVFDHILSQGVLKEEVFSVYYNRGSHLLGGEVVLGGSDPQHYQGNFHYVSISKTDSWQITMKGVSVGSSTLLCEEGCAVVVDTGSSFISAPTSSLKLIMQALGAKEKRIEEYVVNCSQVPTLPDISFDLGGRAYTLSSTDYVLQYPNRRDKLCTLALHAMDIPPPTGPVWVLGATFIRKFYTEFDRHNNRIGFALAR
# B2: mouse prorenin: mouse prorenin, ligand of PRR, infused ICV (protein)
# chain: LPTRTATFERIPLKKMPSVREILEERGVDMTRLSAEWGVFTKRPSLTNLTSPVVLTNYLNTQYYGEIGIGTPPQTFKVIFDTGSANLWVPSTKCSRLYLACGIHSLYESSDSSSYMENGSDFTIHYGSGRVKGFLSQDSVTVGGITVTQTFGEVTELPLIPFMLAKFDGVLGMGFPAQAVGGVTPVFDHILSQGVLKEEVFSVYYNRGSHLLGGEVVLGGSDPQHYQGNFHYVSISKTDSWQITMKGVSVGSSTLLCEEGCAVVVDTGSSFISAPTSSLKLIMQALGAKEKRIEEYVVNCSQVPTLPDISFDLGGRAYTLSSTDYVLQYPNRRDKLCTLALHAMDIPPPTGPVWVLGATFIRKFYTEFDRHNNRIGFALAR
# B3: prorenin: prorenin added at 10 nM to mpkCCD cells; species not stated (protein)
# chain: B2 chain
# Key:
# [1] = tested on: ENaC; test: ENaC activity (Ieq, amiloride-sensitive current) in mpkCCD cells; assay type: cell-based; details: for acute activation of ENaC by prorenin / second (chronic) phase of prorenin-increased sodium transport / ENaC activity: prorenin 10 nM; for acute activation of ENaC by prorenin: PRO20 1.5 μM, losartan 1.0 μM, apocynin 1 mM, eplerenone 10 mg/L; for second (chronic) phase of prorenin-increased sodium transport / ENaC activity: 6 h to 24 h; for Ieq: 10 nM for 5 min, control group 1.17+0.05
# Description: FIGS. 32A-H show the role of PRR in the acute regulation of ENaC activity in cultured CD cells. Confluent mpkCCD cells grown on Transwell membrane were pretreated for 30 min with PRO20 (1.5 μM), losartan (1.0 μM), apocynin (1 mM), or eplerenone (10 mg/L) and then treated with AngII (500 nM) or prorenin (10 nM). Ieq was measured by using EVOM and amiloride-sensitive Ieq was determined at the end of experiments. (A) Time course of Ieq changes in control, AngII, and AngII+PRO20 groups. (B) Amiloride-sensitive Ieq measured at 5 min for experiments in (A). (C) Time course of Ieq changes in control, prorenin, and prorenin+PRO20 groups. (D) Amiloride-sensitive Ieq measured at 5 min for experiments in (C). (E) Time course of Ieq changes in control, prorenin, and prorenin+losartan groups. (F) Amiloride-sensitive Ieq measured at 5 min for experiments in (E). (G) Amiloride-sensitive Ieq measured at 5 min in control, prorenin, and prorenin+apocynin groups. (H) Amiloride-sensitive Ieq measured at 5 min in control, prorenin, and prorenin+eplerenone groups. N=6-12 per group. Data are means±SE.
# FIGS. 33A-D show the role of PRR in chronic regulation of ENaC by prorenin in cultured CD cells. (A) Time course of Ieq changes in control, prorenin, prorenin+PRO20, and prorenin+losartan groups over 24 h in mpkCCD cells. (B) Time course of changes in Ieq during 24-h aldosterone treatment in mpkCCD cells. (C) Amiloride-sensitive Ieq in mpkCCD cells after exposure for 24 h to 10 nM prorenin in presence or absence of eplerenone. (D) Medium aldosterone concentration in primary rat IMCD cells exposed for 24 h to 10 nM prorenin alone or in combination with 1.5 μM PRO20 or 1.0 μM losartan.
# Electrophysiology experiments were performed on the immortalized mpkCCD cells once the cell monolayers reached confluence. The transepithelial voltage (Vte) and resistance (Rte) across cell monolayers were measured with an epithelial volt-ohmmeter (World Precision Instruments). The transepithelial current was calculated according to Ohm's law, Ite=Vte/Rte, and normalized by the surface area of the insert. AngII (500 nM) or prorenin (10 nM) was added to the apical side of the inserts, and amiloride (10 μM) was added at the end of experiments to calculate amiloride-sensitive sodium current as the difference between total current and amiloride-insensitive current.
# [2] = tested on: PRR; test: ICV infusion pressor response in WT and neuron-specific PRR knockout (Nefh-PRR) mice, telemetry; assay type: in vivo, mouse; details: for ΔMAP, pressor response to ICV infusion: Nefh-PRR mice, ICV 100 ng/ul at 0.3 ul/minute for 10 minutes
# Description: (§1) FIG. 6 is a series of graphs illustrating the pressor response to intracerebroventricular (ICV) infusion of carbachol (FIG. 6A), Ang II (FIG. 6B), renin (FIG. 6C), and prorenin (FIG. 6D) in wild-type (WT) and Nefh-PRR mice. WT and Nefh-PRR mice were implanted with telemetric transmitters and ICV cannula. Two weeks after recovery, mice were ICV infused (0.3 μl/min) with carbachol (100 ng/μl), Ang II (100 ng/μl), Ang II (100 ng/μl), +losartan (10 ng/μl), mouse renin (100 ng/μl), mouse prorenin (100 ng/μl), or mouse prorenin (100 ng/μl) +losartan (10 ug/μl) over 10 minutes. Blood pressure (BP) was recorded in conscious freely moving mice. *P<0.05 vs. WT.
# (§2) Neuron-specific PRR knockout mice (Nefh-PRR) and wildtype (WT) littermates (N=5/group) were each implanted with a telemetric probe for blood pressure (BP) recording and an intracerebroventricular (ICV) cannula for infusion of mouse prorenin (100 ng/ul), mouse renin (100 ng/ul), or an Ang II type 1 receptor (AT1R) blocker (losartan, 10 ug/ul) at 0.3 ul/minute for 10 minutes. Mouse prorenin infusion increased the BP (mmHg) in WT mice (ΔMAP: 41±5); however, the prorenin induced pressor response was abolished in Nefh-PRR mice (ΔMAP: 5±1).
# [3] = molecular target: T1, PRR (Mus musculus, UniProt Q9CYN9); test: Prorenin-induced pressor response with ICV PRR antagonist peptides in C57BI/6J mice; assay type: in vivo; design: from tissue; host or cells: brain of living C57Bl/6J mice (ICV infusion); details: ICV mouse prorenin 100 ng/ul alone or with peptide 45 ng/ul, 0.3 ul/minute for 10 minutes
# T1 sequence (Q9CYN9 18-350): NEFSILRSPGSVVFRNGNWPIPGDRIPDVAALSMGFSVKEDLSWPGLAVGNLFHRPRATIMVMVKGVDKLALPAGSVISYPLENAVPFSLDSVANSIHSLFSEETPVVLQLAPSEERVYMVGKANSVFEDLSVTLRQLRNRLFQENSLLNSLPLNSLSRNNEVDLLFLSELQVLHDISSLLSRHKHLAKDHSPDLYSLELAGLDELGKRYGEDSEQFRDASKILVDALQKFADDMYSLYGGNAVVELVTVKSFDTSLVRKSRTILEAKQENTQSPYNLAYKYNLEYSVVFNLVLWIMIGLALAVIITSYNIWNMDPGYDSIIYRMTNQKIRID
# Description: C57BI/6J mice (N=5/group) were each implanted with a telemetric probe for BP recording and an intracerebroventricular (ICV) cannula for infusion of mouse prorenin (100 ng/ul), PR10, or PR20 (45 ng/ul) at 0.3 ul/minute for 10 minutes. Mouse prorenin infusion increased the BP (mmHg) in WT mice (ΔMAP: 31.3±1.1); however, the prorenin-induced pressor response was abolished in either PR10 (ΔMAP: 16.9±4.4 vs. prorenin) or PR20 (ΔMAP: 12.7±0.5 vs. prorenin) infused mice.
# [4] = molecular target: T1, PRR; test: ICV infusion pressor response in WT and neuron-specific PRR knockout (Nefh-PRR) mice, telemetry; assay type: in vivo; design: Neuron-specific PRR knockout mice (Nefh-PRR) and wildtype (WT) littermates (N=5/group) were each implanted with a telemetric probe; from tissue; host or cells: brain of living WT and Nefh-PRR mice (ICV infusion); details: WT mice; ICV 100 ng/ul at 0.3 ul/minute for 10 minutes
# Description: as §1, §2
molecule,measurement,setting,value
COc1cc(C(C)=O)ccc1O [apocynin],acute activation of ENaC by prorenin,[1],completely abolished
COC(=O)[C@@H]1CC2=CC(=O)CC[C@]2(C)[C@@]23O[C@@H]2C[C@@]2(C)[C@@H](CC[C@@]24CCC(=O)O4)[C@H]13 [eplerenone],second (chronic) phase of prorenin-increased sodium transport / ENaC activity,[1],effectively blocked
same,acute activation of ENaC by prorenin,[1],unaffected
CCCCc1nc(Cl)c(CO)n1Cc1ccc(-c2ccccc2-c2nn[nH]n2)cc1 [losartan],pressor response induced by prorenin or renin,[2]; ICV losartan 10 ug/ul,completely blocked
same,second (chronic) phase of prorenin-increased sodium transport / ENaC activity,[1],not
same,acute activation of ENaC by prorenin,[1],not
IFDNIISQGVLKEDVF (PRR antagonist PR10),"ΔMAP, prorenin-induced pressor response",[3],16.9±4.4 mmHg
LPTDTTTFKRIFLKRMPSI (PRR antagonist) [PR20],"ΔMAP, prorenin-induced pressor response",[3],12.7±0.5 mmHg
renin,Ieq,[1],1.58+0.19 μA/cm2
B1,"ΔMAP, pressor response to ICV infusion",[2],27±2 mmHg
same,"ΔMAP, pressor response to ICV infusion",[4],31±5 mmHg
B2,"ΔMAP, pressor response to ICV infusion",[2],5±1 mmHg
same,"ΔMAP, prorenin-induced pressor response",[3],31.3±1.1 mmHg
same,"ΔMAP, pressor response to ICV infusion",[4],41±5 mmHg
B3,Ieq,[1],3.16+0.07 μA/cm2
